{"source": "patent US9974753B2", "about": "“Nanoparticles comprising a vegetable hydrophobic protein and a water miscible non-volatile organic solvent and uses thereof” (BIONANOPLUS, S.L., priority 2012, dated 2018)", "assay": "Solubility of zein in PG binary solvent mixtures (turbidity change at 405 nm)", "assay_type": "physicochemical", "description": "The solubility of zein in different binary mixtures of PG and other water miscible non-volatile organic solvents that are miscible with PG was studied. This example studies the incorporation of different surfactants or solvents to enhance the solubility of a molecule in PG, if necessary. For this purpose, turbidity change of PG zein solution was monitored at 405 nm after the addition of different amounts of water, glycerol, Labrasol®, Tween® 80 or Lutrol® L 44 to 5 mL of zein solution in PG (2.5% w/v), at room temperature. The end point zone, at which zein was precipitated from PG solution, was calculated monitoring the turbidity change at 405 nm, that is, the absorbance increase (in percentage) after each solvent/surfactant addition with respect to the initial absorbance value in a spectrophotometer (Labsystems iEMS Reader MF, Finland).", "data": [{"substance": "zein", "values": [{"measurement": "End point range of zein precipitation from PG solution", "setting": "Tween® 80 added to zein 2.5% w/v in PG", "value": "65-75 % (v/v)"}, {"measurement": "End point range of zein precipitation from PG solution", "setting": "glycerol added to zein 2.5% w/v in PG", "value": "45-55 % v/v"}]}]}
